B1: GS1856: dsRNA trigger SEQ ID NO 214; gene target Zinc finger and SCAN domain-containing protein 20 (nucleic acid)
chain: GACCATTGTGGTCTTTCGACAAAATGATTTCAAACAGCCCTCGTGTGCACATTTGTATGGTCTTTTTCCTGTATGAATACGACGATGACGAGCCAGACTAGATGAATCAGAGAATCGTTTCCCACAACCAAGATGCTGGCATTGATGTGGCTTTTCGCCAGTGTGTGTTCGAATGTGCACAGTTAAGGCACTTCTTTGAATGAAACTTTTTCCACATCCAGGCTGCATGCATGAATATGGCCGTTCGTTGGTATGTATTCGATAGTGGCGTTGAAGGTCAGACTTCCTGTTGAAACTCTTGTGACATGTCTGCCAATCACACTGAAATGGTCTCGCATTAGGTTCGTTTTCAACGAGCTCCATTACATCCATAGTGAACCGACAAGTAGTGTCGAATGTATGCAATGTCGGAGAAGTTAAGGGTTGGACAAGAGGTACCGCAGCAAAAGCTGCAGGTGTGGTGATTAGGTGGGGATGGGTGTCGAATATATAAGATTGCGATTCTCTATTTAAAGAAAAAAGAAATATAAGCAAAATAAAATATTTCTTTTGA
B2: GS1849: dsRNA trigger SEQ ID NO 143; gene target Chitin synthase 8 (nucleic acid)
chain: TTGAGAAGCAGCCAACCATGTATTAACAACTAAGCTAGTGCTTGCATCAAGTTTATATGATTGCGTAGACGTGTAAGCAGTATGGATTGAGTTTAGGAGAGTAGTCGATGAGACTTGCGCTGGAGGTTGAGAAGTAGAATTGTTATTTCGAACACCTCCATACGCTGAAGAGGTAGTTGAATAGATAGACATCCGGTGAGTTCCAGTCATTTTATGAAGAGTGATCGAGTTTTTAGACCTTTCCACGTATGGATATTTAAGGTATGTAAATGAGTCAATTCAAAGTCACAAGATTCTCGATCAGTCGATTGATTGGCTTATTGACAATATTCTTTAGCCGAAATCTTAGACAATGGCTTGACAGAATTAATGTCTGGTCTTCGAAGTATCCAGTTGGTGTGTAGCAGATAACTTCGGTATAGTTGTAGAAATGGAAAACAAACCGCAAAAGACAGTCTTGTATCGACCGTGAGGCCGACAGTAGGAGAAATTCAATGCTATTGAGAAATTGAACAACCAAAAAGCGAAAGTAGGGTAACAAGTTTCGACTCACAGACCTA
B3: GS1850: dsRNA trigger SEQ ID NO 198; gene target Ubiquitin-conjugating enzyme E2-34 kDa (nucleic acid)
chain: TCGTCATCCTCGTCTTGTTCAAAATCATAGTTATCATCGTCTGAGCTCTCGCTGGTACCGAACTCATCCTGATCATCACTCTCGTTCCAGAAATCATCGTCATCATTAATTTGCGGAGGAGGCGCCTCAATTAATGTTTTTGGCATCACAAAACCCTCCGGTATATCTCTCATAGAAATTCTTACTGTCTCCAAAGCCCGCTGTTTGTAAGCCTCCAGGTTATCCCGATACATAACGCTGGCATCAACATTTGCAGGGGAGGTAATCTCAGGGTCATCTAGTAAGAGAAGAATAGAGCGGAGAACACTTTCAACACTCTGAATTGATGACCAGCGCTCACAAGCAAGCTCTCCAGATTGTTCATCATCTCCAGCAGCGTGTAGTATTGAGATGCAAACCCTGCCATCAGGATATATATTTGGATGGTAAATAGGTTGCAAGAATTTGAAGGTCGGAGGAGCATAAGGATATTTATCAGTAAAACCCATTTCAGCCTTAAAATAAGCCCCATCGAAAGCACTTTCTGGGTTGACTACTATTAGAGCGATTAACCACTTGAA
B4: GS1853: dsRNA trigger SEQ ID NO 204; gene target Uncharacterized WD repeat-containing protein C17D11.16 (nucleic acid)
chain: CGGACTTCTTGGTCAGGCGCAAAAGAAGTTGAAAATACCTTTCCAACTTCCAAATCTCTGGACACTATCATTGAGGGGCCCGATGGCTGAATATTCCACAGTTTTACGAGTTTATCAGAAGACCCTGTGGCCATAAACCCGGGAATGATAGGATTAATATCAAAAGCACAAACTGATTTGTCATGTGCTTGCAATAACCAAACTGGCTTACTAGAACTGGGAGTAGATGGTGCCATTCGTATATCGTGATAATGGACCATACCACCTTCTGTCGTTACGTAAAAGAAATTTGGGTTGTGTGCATCCCATTTGACAGCTTCTACATCACTTTCTACACCCCAAATCGGCACTTTGGATTCTGGTGCTCTCATGTCGGCCGCTACGACACTCCGATCATAACTTCCACTAAGTAAGACAGTGGAGTCAACAGGATGCCATTGTATTGAGCAAACTTTATCTGAATGATTACTATATGATTTAGCACATTTATTAGTATTAAGGTCCCATAGTTTGACAGTCTTGTCGGCGGAAGAAGAGGCAAGTAAATTTTGGTGTT
B5: GS1848: dsRNA trigger SEQ ID NO 134; gene target ADP-ribosylation factor-like protein 3 (nucleic acid)
chain: CACCGCCCATAGCTCCTTCAAAAACGTGTTTGACAAATCCCTCTTTGATTCGTACCACTTCAACGCAATCTTCACGATCTTGCTTATTTGCTAATATCAACAATGGTACACCGTCAATTTCTCCATTGACCAAGACTTCCTCCAGAGCCAATCGACACTCTTCAAGGCGACCCGACTCATCATGCTCCAAATCTCCATCACCAATCTCAGTGCTATCAATGAGGAAAATAATGGCGTGGCATGATCGATAGTAAGATTTCCATAGTTTGCGAAGAGATTCCTGACCACCTACATCCCAAAGCTTAAGGTACATGTCAGGCAGCGTAATAGTGCTCACATTTTGTCCGACTGTAGGTCCCGTATTTATTTTGGGTGCAGGCGCATGAGGCAGGAACAGGAATTTAACTTGTTCGTGAAAAGTTGTCTTGCCGGCGTTATCAAGTCCCAGCAAAAGAACCGAGTATTCTTCTTTGCGCGTTGCGTAGTGGTAGAGACCCTTAACCAAATGATACATGTAGGTTTAGATCTACATAAATGGAGAAAGAAATCTTAATTAGAATGG
B6: GS1859: dsRNA trigger SEQ ID NO 207; gene target Citrate/oxoglutarate carrier protein (nucleic acid)
chain: AGGATCTTCTTTTGCTCTGCATTTCAACTCGAATAACCTCAATTGGTTGATTCCACGCACTCAACCCTCCCCCAAGGGCACTAGCGAGAATTCGTTCCCAAGCACTTAATGGACCGCCATTTTCTTTTCCTGAAACCTTTCGGATTCCCTGTTCTGCCAAACGACTTAATCCAAATCTGGATCCCCAATTCGTCATTTGTCGAATGGCAACAGCATTCACACCTTTATTAATACCTCTGATCCCATCTTTACGGTATATATCCATAAATGTTGAGAAAGTTCCTGGGGGCTTTACACCAGTGGATGCTAATTTGGATTTCGTAATCTCCACAGTTTTCATGCATGTACAAAAGCCCATAGTGGCATATGCTTGAGCCATACCCCCGACAACGCCTCCTGTGATGCCGGCTGTGAAGATGCCGGCTCCAAAACTTCGAGCATAGAATTCTGCTTCTGAAGCGACAAATAGAAGAACTGCACCTTTTGATGAAGCTTCAATCCAAGCCCATGGGATCAAGCCCTGATAAAAACCCAAAACA
B7: GS1855: dsRNA trigger SEQ ID NO 212; gene target Golgi apyrase (nucleic acid)
chain: TAACACCCGCAGTTGCCATCAGAAAGAAGGGAGTATCTTTAACTTGATTCTCAGGTACAATACTCAATGCATGATCTAGTAAGCTTTGAAGATGTTCAGGACCAATATCTGTTATGCGATCGGCAAAGGAAGAGACGCCGGGTTTGATTTTTTTTGAATATCCAGGTTTAGTGTGTAACTGAGGTAGTTGGTTCAATTGAATCTCATTTTTTGCATCGTAACGAGCTCGAGATGTATTGAGCCACCGGTAGACGTGGACTCGAGTCCCTGACGAGCCCGCGTCTAAGATAACCCCCCATCGCCATTTACCCATAAGTAGCCTATCGTTACGGTTTGGCGATGCCGGTCTAGGATATGTGCTTCAATATCAAAAATAATCCGTGAAGCGTTACAAAAACATGAGTCAATTATACGGAATTTGAAACGAGTGTGAAAGGAAGTCGGCAGACTCAAAAATAAAAAAGAAAGATAATAATTCGAATTTGAATGAGAATGAGTAGTGGTCGGATAAGATGTTTAATGCTAAGTGCTAAGATAACTGACTAAGACTTGAT
B8: GS1852: dsRNA trigger SEQ ID NO 202; gene target PA-phosphatase related-family protein DDB_G0275547 (nucleic acid)
chain: TTCTCTTAGGGACGGTTGGCATCATTATTAATTTTGCAGAACCAATTCCATCTCGATCTTTTCCGATTTATTCTCAAAATGGAGATATTGTTTATCCTCAATTTGCATATCCTCTTCGCAAGAATATCATTCCAATTTGGGTAGCAATTTTGTTGGCTTCACTTATTCCTTTGCTCATCATTTTCCTTACACAATTTCGTATTCGCTCGTTTTGGGATGCAAACAACGCGATTACAGGGCTATTATACTCCCTTATTATCGCCGGAGTGTTTCAAGTCTTCTTAAAGTGGTTAATTGGAGGGCTGAGACCTCATTTTCTAACCGTCTGTGAGCCAATAATTCCAACACGTGCTCCAATAAAGGCTAGATATGGGCCTAGAATAATAATGTACGACAGAAATGTCTGCACTGGCGACAAAAGGCAGATCAATAATTCTCTTGAATCATTCCCTTCAAGCCAATCGACTGTAGCATTTTCTGGTTTCGTTTATTTGGCTATATACCTGAATGCAAAACTTAAAATTTGGTCTAATTACCATTCTGCCATGTGGAAGAT
B9: GS1857: dsRNA trigger SEQ ID NO 129; gene target Transcriptional adapter 2 (nucleic acid)
chain: CTTGCTTGAAATTCTTCTCGTGGAATTTCTTCAAGAAGCTGAGTATCCTTGAGACTAGCTCTAACAGGTAGGGGAAACTTTGGACTATCCAGATAAACTTTCTGATAATGCGCCTTAACTTCGTCCTTGTCTCGATAACCTCCAATATGGTCTGCTATATCTGCCCATGATCCAAAGCCATATATTTCGGCTCCCTCCAAAAGAAGTAATTCTTCATCAGCACCCCAGTTTCTGTCATATATGGGAACTGAATTTTGCTCTATTACTCGGTATGGATGGGTTCCTGGGTTGTGGTTGTGTGAAGCTTCGCCATTTGAGAAGCATAGCACACAAAGATCATAATCATGACAGTGAGGGTCAGCACACCTAATTCGAACTGTCGAGGTAATGTCTGCTGAGCATACATCGCATACATACTTAACACCTCCCTCGGCACCTCGGGTCGCAGTCTTCTTCCTGATTTGGCCCATTGCTAAAACTCATGGTCAGTACTAGCAACAGAGCTCCCCTTGGTAGCACGAAGTTAAAACTGCAAATCCTTAAAATTTT

Test system: E. necator
Experiment: Leaf disc assay, dry inoculum (settling tower), decrease in disease severity / hyphal growth (Example 2)
Conditions: decrease in disease severity (hyphal growth) relative to untreated control, value ± SE; for % decrease =/− SE TP1: time point 1 (untreated control hyphal growth ≥50%); for % decrease =/− SE TP2: time point 2

| Molecule | % decrease =/− SE TP1 [%] | % decrease =/− SE TP2 [%] |
| --- | --- | --- |
| B1 | 1 ± 7 | 6 ± 8 |
| B2 | – | 5 ± 8 |
| B3 | 13 ± 6 | 0 ± 6 |
| B4 | 14 ± 6 | 0 ± 5 |
| B5 | 18 ± 8 | 7 ± 8 |
| B6 | 32 ± 5 | 26 ± 7 |
| B7 | 26 ± 4 | 10 ± 6 |
| B8 | 22 ± 4 | – |
| B9 | 28 ± 5 | 14 ± 7 |
